Experimental findings from PMC10929192, “Hypoxia-activated selectivity-improved anti-PKM2 antibody combined with prodrug TH-302 for potentiated targeting therapy in hepatocellular carcinoma” (International Journal of Biological Sciences, 2024) are described below.

The target of one assay is T1, PKM2 Ag in HCC tissues (Homo sapiens (HCC patient tissue), UniProt P14618).
T1 construct: M2 splice isoform of pyruvate kinase (PKM2), endogenous in human HCC tissue; source: endogenous, surgical specimens from HCC patients (tissue sections)
T1 sequence (P14618 whole entry, canonical isoform): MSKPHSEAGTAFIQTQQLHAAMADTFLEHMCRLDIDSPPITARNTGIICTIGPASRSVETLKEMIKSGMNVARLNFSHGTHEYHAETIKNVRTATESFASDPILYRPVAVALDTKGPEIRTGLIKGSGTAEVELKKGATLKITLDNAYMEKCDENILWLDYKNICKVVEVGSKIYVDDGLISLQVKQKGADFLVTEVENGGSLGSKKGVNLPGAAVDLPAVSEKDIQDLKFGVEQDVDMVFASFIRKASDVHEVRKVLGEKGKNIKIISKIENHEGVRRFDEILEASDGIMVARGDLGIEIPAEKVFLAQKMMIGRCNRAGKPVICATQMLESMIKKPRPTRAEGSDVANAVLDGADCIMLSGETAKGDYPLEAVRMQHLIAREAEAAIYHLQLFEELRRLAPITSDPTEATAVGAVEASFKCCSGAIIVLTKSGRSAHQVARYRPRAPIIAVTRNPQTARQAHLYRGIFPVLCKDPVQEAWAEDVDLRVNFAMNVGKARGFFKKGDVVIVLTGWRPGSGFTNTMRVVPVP
The experiment in a line: immunostaining of cells or tissue; IHC on sections of HCC patient specimens; primary Abs 0.1 mg/mL overnight at 4 °C; goat anti-human IgG-HRP. The conditions noted are these: one partner purified.

In assay [1] the target is T2, human PKM2 Ag (M2 splice isoform of pyruvate kinase), purified (Homo sapiens, UniProt P14618).
T2 construct: M2 splice isoform of pyruvate kinase (PKM2), human; also called purified PKM2 antigen
T2 sequence (P14618 whole entry, canonical isoform): as above
In words: SPR; human PKM2 Ag (20 µg/mL, sodium acetate buffer, pH 5) on a CM5 chip; serial dilutions of the Abs injected at 20 μL/min, 120 s binding, 300 s dissociation; 1:1 kinetic binding model; Biacore T200. The conditions noted are these: both partners purified. A general note: In SPR one partner is held on a chip, and binding of the other changes the refractive index at the surface.

In assay [2] the target is T3, PKM2 Ag expressed in HCC cells (HepG2, Huh7) (Homo sapiens (HepG2, Huh7), UniProt P14618).
T3 construct: M2 splice isoform of pyruvate kinase (PKM2), endogenous in human HCC cell lines; living cells were incubated with the antibodies at 37 °C; the antibody is said to internalize; also called expressed PKM2 Ag; source: endogenous, HepG2 and Huh7 cells
T3 sequence (P14618 whole entry, canonical isoform): as above
The experiment in a line: flow cytometry on cells; normoxia-cultured HepG2 and Huh7 cells, EDTA-detached, Abs in serum-free medium 1 h at 37 °C; goat anti-human IgG(H+L)-RDM. The conditions noted are these: one partner purified. (In flow cytometry, cells or beads pass a laser one at a time.)

B1: human full-length H103 Ab (anti-PKM2 antibody, IgG1) (antibody, V domains shown)
VH: QVQLQESGPGLVRPSGTLSLICAVSGDSISSSIWWSWVRQSPGKGLEWIGYIYHNGNTYYNPSLESRVTISVDTSENQFSLKLSSVTAADTAVYYCARGYDSSGYYWTDDRYYFDYWGQGTLVTVSS
VL: NFMLTQPHSVSESPGKTVTISCTGSSGSIASNYVQWYQQRPGSAPTTVIYEDNQRPPGVPDRFSGSIDSSSNSASLTISALETEDEADYYCQSYDSRNIDVVFGGGTKVTVL
notes: the first five amino acids were replaced by those of germline IGHV4-4*02; constant region of human IgG1 (from the expression vector pcMV3-H103-H); light chain constant region from the vector pcMV3-H103-L; IgG1; codon optimised; also called parental H103 Ab; parent H103 Ab
On to B1, for which the binding result (in the assay with PKM2 Ag in HCC tissues; in assay [1]) was “binds” throughout.

B2: Na2S2O4-cleaved HAP103 Ab (act-HAP103) (antibody, V domains shown)
VH: B1 VH
VL: B1 VL
notes: as the VH of m1; constant region of human IgG1, as in m1; as the VL of m1; as the light chain constant region of m1; IgG1; also called act-HAP103 Ab; act-HAP Ab; source: HAP103 Ab incubated with Na2S2O4 in carbonate buffer pH 8.0 at RT for 2 h, ultrafiltration
For B2, the binding result (in assay [2]; in the assay with PKM2 Ag in HCC tissues; in assay [1]) was “binds” each time.
